We go through 17 molecules from patent US20170081400A1 (CEPHALON, published 2017).

For assay [1], the target named is T1, human TL1A extracellular domain with N-terminal HIS and FLAG tag (human, UniProt O95150 72-251).
T1 construct: the whole entry is named; also called TNFSF15
T1 sequence: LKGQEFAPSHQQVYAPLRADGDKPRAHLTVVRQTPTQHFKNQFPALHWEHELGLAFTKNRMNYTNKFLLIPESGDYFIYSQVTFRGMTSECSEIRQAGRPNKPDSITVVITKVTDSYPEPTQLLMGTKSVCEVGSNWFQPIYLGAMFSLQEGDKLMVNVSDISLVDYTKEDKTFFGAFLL
Kind of assay: SPR Run 7, antibody on Protein A, TL1A 5 ug/mL, timepoint 220. An excerpt:
(§1) 1.5. Antibody expression and antigen binding as determined by SPR. Using a CM5 sensor chip (GE Healthcare) Protein A (Pierce) was coupled to the chip surface using an amine coupling kit (GE Healthcare). Protein A was coupled on flow cell 1 and 2 (or alternatively 3 and 4) using a BIACORE® T200. […] The amount of supernatant or purified protein (as well as the concentration) injected during the capture stage varied between runs and is specified in the header of the Tables 3-11. At the end of injection of the supernatant or purified antibody the change in response units was measured. This value was reported as Capture Level in Tables 3-11. […] The response units were measured prior to the end of the dissociation phase. […] The sensorgrams were double referenced (flow cell 2 is subtracted from flow cell 1 and a buffer blank). As there were a large number of antibody variants to screen, these were screened across different runs (Tables 3-11). […] A summary of the conditions used in each run is below:
(§2) 2.1. […] In some experiment the antibodies were purified using Protein A chromatography (See 1.4) and purified antibodies were used in BIACORE® (GE Healthcare) experiments.

The target of assay [2] is T1, human TL1A extracellular domain with …. Put plainly: SPR Run 7, antibody on Protein A, TL1A 5 ug/mL, timepoint 44.
Description: as §1, §2

B1: 320-524 (antibody, human IgG1, name in Kabat numbering, V domains shown)
VH: QVQLVQSGAEVKKPGASVKVSCKASGYTFTSYDINWVRQAPGQGLEWMGWLNPNQGNTGYAQKFQGRVTMTADRSTSTAYMELSSLRSEDTAVYYCAREVPETAAFEYWGQGTLVTVSS
VL: QSVLTQPPSVSGAPGQRVTISCTSSSSDIGAGLGVHWYQQLPGTAPKLLIEGYYNRPSGVPDRFSGSKSGTSASLTITGLLPEDEGDYYCQSYDGTLSALFGGGTKLTVLG
notes: full-length human IgG1, lambda
Consider B1, for which the “TL1A Binding Level (Late)” value in assay [1] is 49 RU. Also, the “TL1A Binding Level (Early)” value in assay [2] is 55 RU.

B2: 320-530 (antibody, human IgG1, name in Kabat numbering, V domains shown)
VH: QVQLVQSGAEVKKPGASVKVSCKASGYTFTSYDINWVRQAPGQGLEWMGWLNPNYGNTGYAQKFQGRVTMTADRSTSTAYMELSSLRSEDTAVYYCAREVPETAAFEYWGQGTLVTVSS
VL: QSVLTQPPSVSGAPGQRVTISCTSSSSDIGAGLGVHWYQQLPGTAPKLLIEGYYNRPSGVPDRFSGSKSGTSASLTITGLLPEDEGDYYCQSYDGTLSALFGGGTKLTVLG
notes: as for B1
Turning to B2, the “TL1A Binding Level (Late)” value in assay [1] stood at 67 RU. For the same molecule, the “TL1A Binding Level (Early)” value in assay [2] is 77 RU.

B3: 320-528 (antibody, human IgG1, name in Kabat numbering, V domains shown)
VH: QVQLVQSGAEVKKPGASVKVSCKASGYTFTSYDINWVRQAPGQGLEWMGWLNPNLGNTGYAQKFQGRVTMTADRSTSTAYMELSSLRSEDTAVYYCAREVPETAAFEYWGQGTLVTVSS
VL: QSVLTQPPSVSGAPGQRVTISCTSSSSDIGAGLGVHWYQQLPGTAPKLLIEGYYNRPSGVPDRFSGSKSGTSASLTITGLLPEDEGDYYCQSYDGTLSALFGGGTKLTVLG
notes: as for B1
In the case of B3, in assay [1], the “TL1A Binding Level (Late)” value worked out at 108 RU. The “TL1A Binding Level (Early)” value in assay [2] amounted to 121 RU.

B4: 320-529 (antibody, human IgG1, name in Kabat numbering, V domains shown)
VH: QVQLVQSGAEVKKPGASVKVSCKASGYTFTSYDINWVRQAPGQGLEWMGWLNPNWGNTGYAQKFQGRVTMTADRSTSTAYMELSSLRSEDTAVYYCAREVPETAAFEYWGQGTLVTVSS
VL: QSVLTQPPSVSGAPGQRVTISCTSSSSDIGAGLGVHWYQQLPGTAPKLLIEGYYNRPSGVPDRFSGSKSGTSASLTITGLLPEDEGDYYCQSYDGTLSALFGGGTKLTVLG
notes: as for B1
On to B4, for which the “TL1A Binding Level (Late)” value in assay [1] is 83 RU. Besides, the “TL1A Binding Level (Early)” value in assay [2] was 94 RU.

B5: 320-525 (antibody, human IgG1, name in Kabat numbering, V domains shown)
VH: QVQLVQSGAEVKKPGASVKVSCKASGYTFTSYDINWVRQAPGQGLEWMGWLNPNDGNTGYAQKFQGRVTMTADRSTSTAYMELSSLRSEDTAVYYCAREVPETAAFEYWGQGTLVTVSS
VL: QSVLTQPPSVSGAPGQRVTISCTSSSSDIGAGLGVHWYQQLPGTAPKLLIEGYYNRPSGVPDRFSGSKSGTSASLTITGLLPEDEGDYYCQSYDGTLSALFGGGTKLTVLG
notes: as for B1
In the case of B5, the “TL1A Binding Level (Late)” value in assay [1] is 17 RU. Moreover, in assay [2], the “TL1A Binding Level (Early)” value turned out to be 33 RU.

B6: 320-533 (antibody, human IgG1, name in Kabat numbering, V domains shown)
VH: QVQLVQSGAEVKKPGASVKVSCKASGYTFTSYDINWVRQAPGQGLEWMGWLNPNSQNTGYAQKFQGRVTMTADRSTSTAYMELSSLRSEDTAVYYCAREVPETAAFEYWGQGTLVTVSS
VL: QSVLTQPPSVSGAPGQRVTISCTSSSSDIGAGLGVHWYQQLPGTAPKLLIEGYYNRPSGVPDRFSGSKSGTSASLTITGLLPEDEGDYYCQSYDGTLSALFGGGTKLTVLG
notes: as for B1
With B6, in assay [1], the “TL1A Binding Level (Late)” value came to 86 RU. The “TL1A Binding Level (Early)” value in assay [2] came out at 93 RU.

B7: 320-526 (antibody, human IgG1, name in Kabat numbering, V domains shown)
VH: QVQLVQSGAEVKKPGASVKVSCKASGYTFTSYDINWVRQAPGQGLEWMGWLNPNHGNTGYAQKFQGRVTMTADRSTSTAYMELSSLRSEDTAVYYCAREVPETAAFEYWGQGTLVTVSS
VL: QSVLTQPPSVSGAPGQRVTISCTSSSSDIGAGLGVHWYQQLPGTAPKLLIEGYYNRPSGVPDRFSGSKSGTSASLTITGLLPEDEGDYYCQSYDGTLSALFGGGTKLTVLG
notes: as for B1
Regarding B7, in assay [1], the “TL1A Binding Level (Late)” value came out at 124 RU. For the same molecule, the “TL1A Binding Level (Early)” value in assay [2] was determined as 134 RU.

B8: 320-537 (antibody, human IgG1, name in Kabat numbering, V domains shown)
VH: QVQLVQSGAEVKKPGASVKVSCKASGYTFTSYDINWVRQAPGQGLEWMGWLNPNSLNTGYAQKFQGRVTMTADRSTSTAYMELSSLRSEDTAVYYCAREVPETAAFEYWGQGTLVTVSS
VL: QSVLTQPPSVSGAPGQRVTISCTSSSSDIGAGLGVHWYQQLPGTAPKLLIEGYYNRPSGVPDRFSGSKSGTSASLTITGLLPEDEGDYYCQSYDGTLSALFGGGTKLTVLG
notes: as for B1
In the case of B8, the “TL1A Binding Level (Late)” value in assay [1] was 123 RU. The “TL1A Binding Level (Early)” value in assay [2] is 133 RU.

B9: 320-534 (antibody, human IgG1, name in Kabat numbering, V domains shown)
VH: QVQLVQSGAEVKKPGASVKVSCKASGYTFTSYDINWVRQAPGQGLEWMGWLNPNSDNTGYAQKFQGRVTMTADRSTSTAYMELSSLRSEDTAVYYCAREVPETAAFEYWGQGTLVTVSS
VL: QSVLTQPPSVSGAPGQRVTISCTSSSSDIGAGLGVHWYQQLPGTAPKLLIEGYYNRPSGVPDRFSGSKSGTSASLTITGLLPEDEGDYYCQSYDGTLSALFGGGTKLTVLG
notes: as for B1
For B9, the “TL1A Binding Level (Late)” value in assay [1] was 102 RU. For the same molecule, the “TL1A Binding Level (Early)” value in assay [2] was found to be 109 RU.

B10: 320-538 (antibody, human IgG1, name in Kabat numbering, V domains shown)
VH: QVQLVQSGAEVKKPGASVKVSCKASGYTFTSYDINWVRQAPGQGLEWMGWLNPNSWNTGYAQKFQGRVTMTADRSTSTAYMELSSLRSEDTAVYYCAREVPETAAFEYWGQGTLVTVSS
VL: QSVLTQPPSVSGAPGQRVTISCTSSSSDIGAGLGVHWYQQLPGTAPKLLIEGYYNRPSGVPDRFSGSKSGTSASLTITGLLPEDEGDYYCQSYDGTLSALFGGGTKLTVLG
notes: as for B1
For the molecule B10, in assay [1], the “TL1A Binding Level (Late)” value was 49 RU. Besides, the “TL1A Binding Level (Early)” value in assay [2] was determined as 54 RU.

B11: 320-536 (antibody, human IgG1, name in Kabat numbering, V domains shown)
VH: QVQLVQSGAEVKKPGASVKVSCKASGYTFTSYDINWVRQAPGQGLEWMGWLNPNSKNTGYAQKFQGRVTMTADRSTSTAYMELSSLRSEDTAVYYCAREVPETAAFEYWGQGTLVTVSS
VL: QSVLTQPPSVSGAPGQRVTISCTSSSSDIGAGLGVHWYQQLPGTAPKLLIEGYYNRPSGVPDRFSGSKSGTSASLTITGLLPEDEGDYYCQSYDGTLSALFGGGTKLTVLG
notes: as for B1
Turning to B11, in assay [1], the “TL1A Binding Level (Late)” value amounted to 105 RU. The “TL1A Binding Level (Early)” value in assay [2] worked out at 115 RU.

B12: 320-532 (antibody, human IgG1, name in Kabat numbering, V domains shown)
VH: QVQLVQSGAEVKKPGASVKVSCKASGYTFTSYDINWVRQAPGQGLEWMGWLNPNSSNTGYAQKFQGRVTMTADRSTSTAYMELSSLRSEDTAVYYCAREVPETAAFEYWGQGTLVTVSS
VL: QSVLTQPPSVSGAPGQRVTISCTSSSSDIGAGLGVHWYQQLPGTAPKLLIEGYYNRPSGVPDRFSGSKSGTSASLTITGLLPEDEGDYYCQSYDGTLSALFGGGTKLTVLG
notes: as for B1
B12: the “TL1A Binding Level (Late)” value in assay [1] was determined as 7 RU. For the same molecule, the “TL1A Binding Level (Early)” value in assay [2] is 10 RU.

B13: 320-540 (antibody, human IgG1, name in Kabat numbering, V domains shown)
VH: QVQLVQSGAEVKKPGASVKVSCKASGYTFTSYDINWVRQAPGQGLEWMGWLNPNSGSTGYAQKFQGRVTMTADRSTSTAYMELSSLRSEDTAVYYCAREVPETAAFEYWGQGTLVTVSS
VL: QSVLTQPPSVSGAPGQRVTISCTSSSSDIGAGLGVHWYQQLPGTAPKLLIEGYYNRPSGVPDRFSGSKSGTSASLTITGLLPEDEGDYYCQSYDGTLSALFGGGTKLTVLG
notes: as for B1
Turning to B13, in assay [1], the “TL1A Binding Level (Late)” value worked out at 92 RU. Moreover, the “TL1A Binding Level (Early)” value in assay [2] was 100 RU.

B14: 320-535 (antibody, human IgG1, name in Kabat numbering, V domains shown)
VH: QVQLVQSGAEVKKPGASVKVSCKASGYTFTSYDINWVRQAPGQGLEWMGWLNPNSHNTGYAQKFQGRVTMTADRSTSTAYMELSSLRSEDTAVYYCAREVPETAAFEYWGQGTLVTVSS
VL: QSVLTQPPSVSGAPGQRVTISCTSSSSDIGAGLGVHWYQQLPGTAPKLLIEGYYNRPSGVPDRFSGSKSGTSASLTITGLLPEDEGDYYCQSYDGTLSALFGGGTKLTVLG
notes: as for B1
In the case of B14, the “TL1A Binding Level (Late)” value in assay [1] was 115 RU. Also, the “TL1A Binding Level (Early)” value in assay [2] is 126 RU.

B15: 320-539 (antibody, human IgG1, name in Kabat numbering, V domains shown)
VH: QVQLVQSGAEVKKPGASVKVSCKASGYTFTSYDINWVRQAPGQGLEWMGWLNPNSGATGYAQKFQGRVTMTADRSTSTAYMELSSLRSEDTAVYYCAREVPETAAFEYWGQGTLVTVSS
VL: QSVLTQPPSVSGAPGQRVTISCTSSSSDIGAGLGVHWYQQLPGTAPKLLIEGYYNRPSGVPDRFSGSKSGTSASLTITGLLPEDEGDYYCQSYDGTLSALFGGGTKLTVLG
notes: as for B1
In the case of B15, the “TL1A Binding Level (Late)” value in assay [1] was 159 RU. Also, the “TL1A Binding Level (Early)” value in assay [2] was determined as 172 RU.

B16: 320-531 (antibody, human IgG1, name in Kabat numbering, V domains shown)
VH: QVQLVQSGAEVKKPGASVKVSCKASGYTFTSYDINWVRQAPGQGLEWMGWLNPNSANTGYAQKFQGRVTMTADRSTSTAYMELSSLRSEDTAVYYCAREVPETAAFEYWGQGTLVTVSS
VL: QSVLTQPPSVSGAPGQRVTISCTSSSSDIGAGLGVHWYQQLPGTAPKLLIEGYYNRPSGVPDRFSGSKSGTSASLTITGLLPEDEGDYYCQSYDGTLSALFGGGTKLTVLG
notes: as for B1
Turning to B16, the “TL1A Binding Level (Late)” value in assay [1] was 61 RU. Besides, in assay [2], the “TL1A Binding Level (Early)” value was 66 RU.

B17: 320-527 (antibody, human IgG1, name in Kabat numbering, V domains shown)
VH: QVQLVQSGAEVKKPGASVKVSCKASGYTFTSYDINWVRQAPGQGLEWMGWLNPNKGNTGYAQKFQGRVTMTADRSTSTAYMELSSLRSEDTAVYYCAREVPETAAFEYWGQGTLVTVSS
VL: QSVLTQPPSVSGAPGQRVTISCTSSSSDIGAGLGVHWYQQLPGTAPKLLIEGYYNRPSGVPDRFSGSKSGTSASLTITGLLPEDEGDYYCQSYDGTLSALFGGGTKLTVLG
notes: as for B1
Turning to B17, the “TL1A Binding Level (Late)” value in assay [1] stood at 136 RU. In assay [2], the “TL1A Binding Level (Early)” value was found to be 146 RU.
